Measured values from the DeepSol protein solubility set.

Test: soluble on expression in E. coli; label from the status in PepcDB or PDB records

| Sequence | soluble on expression in E. coli |
| --- | --- |
| MFSSSKLVNAVAQRLLDTIEQGRWVAGQMLPGQRELAEQMEISRPSLREAIMVLETLGVVRSLPGKGVMVLERSEPLREVAAPGEATMEDVLQLRYALEPFIVGIVAQSAGAAEISELRLLLLDLREAVEDGDPQALVEAYTAFHRRLVKLTSNPIFLSVSEQIGSALERSDNLVRRQPEYAEEILQEHDAILRAIRQHDSERASQAMRQHILNEGARLNIDLRLPQV | not soluble |
| MGHHHHHHSHMRKLTALFVASTLAMGAANLAHAAETTTAAPADAKPMMQHKGKFGPHHDMMFKNLNLTDAQKQQIRDIMKAQREQMKRPLLEERRAMHDIIASDTFDKAKAEAQITKMEAQRKANMLAHMETQNKIYNVLTPEQKKQYNANFEKRLTERPAQEGKMPAAAE | soluble |
| MGSDKIHHHHHHMNLNPIINNFQRPIRKVQICCILIFSCAACSLNIPYENQYSDPDAITTVTAARELLASAYDAIPKPEFSLSVLSDDFQPTFLINLNADLNNLYKWHPKPMEDLSNSLWEKYYSAIAIANTVLERIHYVSPISDSDKQELQCIVSEAKTLKAYCYFNLLRLFAPTYPEGPEKDGIILKERFELAFLKRSSISECVNAIRQLLTEAVTVDNRPSQVYWFSRQSAYYLLAALELYAENYDKAEEYALKILSSTNAYNVLAPVHYKKLWEQEPCEECIFSLHTTNSYYTDMNYERKKGDYFTINSTLTQLYTANDIRYEATVYPQEMPGESIGETLPVLYLGKYNKQNWNYKPIQYINKLRVSGICFILAEAYCQDQKGHDALALEVINNYLAQREAPLLDTSLSGAPLLKAILQEKWKEFAGEGERYFDLKRYRKSLLSDWNLSATMKNKPIKPDDYRWLFPIPKGEYLYNENISQNAGWTKVEK | not soluble |
| MSLKNARLHVINPDEVATSVLFRLLAPTGIESRHYPCAEDFLNQYQANGPACLLVDMLLPDWGPLRLLGELKRRQIHHPCIFMSYRCEEQTLMELLEQQAFAFIKKPLNQVKLTELIQVAMGQDQKEGHHHHHH | not soluble |
| KLSNGMNGSEAAVHEVPEYTGPLGTSGEEPAPTVEKPEYTGPLGTSGEEPAPTVEKPEYTGPLGTAGEEAAPTVEKPEFTGGVNGTEPAVHEIAEYKGSDSLVTLTTKEDYTYKAPLAQQALPETGNKESDLLASLGLTAFFLGLFTLGKKREQ | not soluble |
| MLYKRKNIKFKNFVDLHKNLSLSKLFDFYSVFEGFEKLNILNFEDDVFTNIERILLDDYLKIKSYFALDETSSYALTLLAKNNRKRFSINRKIQHFKALSTLKYLLETGIIKLEYSKEAKKIKDKRQKIKKELRSYVVQDKIIFSNHFTRFFFYFLKPNEKLILQNRYKEVLECIKEKFELYQSFCFEQLSRELLEKKFNINGVQSYWDKNLELDLYYQDENLCFVGEVKFKNKKICKNILNLLKSKAKSLNLAPNYYIIISKNGFSKEIDKICEQNLLLLDLNDFKILLEELEHHHHHH | not soluble |
| GSHMVLTKKKLQDLVREVDPNEQLDEDVEEMLLQIADDFIESVVTAACQLARHRKSSTLEVKDVQLHLERQWNMWI | soluble |
| SKKGGKRFEIACYKNKVMSWRSGAEKDLDEVLQTNTVFVNVSKGQVAKKEDLSNAFGTDDLTEICKQILSKGELQVSDKERQSQLEQMFRDIATIVAEKCVNPETKRPYTVNLIERAMKDIHFSVKANKSTKQQALEVIKQLKESIQIQRAHMRLRFVLPAKDGKRLKEKLKPLIKAVENEDFDDQLEMVCLIDPGCFRDIDELIRCETKGKGTLEVLSLKDVEEGDEKLE | soluble |
| MGSDKIHHHHHHMNVFATLKTVFFGSKFLSSPVPIDGTPRRDLVSALNGLMPLCRTIPGVRLALDIREGQVVLALNWTPRTDGNAPTGSYHYIVSDEDGVREMADSQVLLTENGKDNLPGSMDDSRTHPTVSTEKTEKDSAHLKKDVQKKAGPTSPEDTGKKAKSHTLMQEVTAFLTSRYRFRFNVLTEETEVASVENNIPDTHLRYAKVDERWMNSLSLEAIETGIDCWDRDIQRFVRSRRISEYHPFTAYFEQLPEWDGTDRVSALARRVSDDPVWVNGFHRWMLGLSAQWMQLNPDNNRANSVAPLLVSSRQGLGKSTFCRLLMPDRLKSYYTESYDLSSPTSAEAKLAAYGLINLDEFDKLGASKMPLLKNLMQASALNIRKAYKHSASSLPRIASFIGTSNREDLLVDRTGSRRFLCVSLKHAIDCTTSVEHKQLYAQLKTELLSGERSWFNKEEEQTIQQHNALFYKHVPEEEVFRLCFRFATEEDNPQEVLSLSATQLFERMKAAHPSIMRGMTAYSLSRILPQLGERVHTTKGNVYRVVEC | not soluble |
| MGSDKIHHHHHHMALKEEIYYNSPIFIQNILTSMYGKKLMQERYGPGYEKKLQELRVKDRTVDYRIEQLERLNTFLLFIQEHTPYYRKLFQEHDIRLPFTSLDQLQTIPILEKETLRQQNEAFMSEVDAPVRGRTGGTSGKSLQVAFMREDVQERMAHLDYFKELHGFRSGMRRASFTGRTLTAINQKKPIFWRKNRPLNQLLLSIFHMKEENFPAYIEELNRFRPAALDGTPTAMLEIALYLLKHELRLDFPLVAIFPTSETVTPEMRRLLEEAFQAPVFDQYGSSEGAPIISECRERKLHLHHETGIIEPYGDGGEVVVTCFTTRGTPLVRYRIGDRMTLGQEACTCGLNGPVIESIDGRGTSYIVSEKRGKVFEGDITTIARELPNSVLRLQVEQHELNHVTLRYIPDEQRFVPKHEKILLREMQKLLGSSMKVTLEPVQQMKQEPNGKTLIVKQSMK | not soluble |
| MIDERLKKDLAILPISTVRALTNLSDRQIRYYESQDLLTTKRGKGGQRRFSLNDVERLIEIRMMMESGDSLKDIHNLYETHRVSNRRNEKTEFVHSLENEFLKIGRLEKH | not soluble |
| IPKNTGGVLNSSVLDDAFSFITSYFDIEYGGLGFGAKFPHPFVDLLFLNYSATRGDDLGKKLGLFTLRKMYYGGIFDQVGGGFHRYTVDREWKLPHFEKLLIDNAELIYDYFTYYIATNDIEILDALRNSVDFVLRELYIDGKGFANSLDADSEGMEGKYYTWTEDELKDSLGNDY | not soluble |
| MKSSKASEEDLAAATEKMQSMKGKKSQAAAALEAEQAKAEKRLSCLLKARTKLSFRVIRDGIKCHGGIHLKKQSEKAELDISVTNTAINNLPSDADIVITHKDLTDRAKAKLPNATHISVDNFLNSPKYDELIEKLKSNLIEREYCHASTRKGNIKLNQTVSSKEEAIKLAGQTLIDNGYVTEDYISKMFDREETSSTFMGNFIAIPHGTEEAKSEVLHSGISIIQIPEGVEYGEGNTAKVVFGIAGKNNEHLDIL | soluble |
| MDSENAVKTTYGEFNGKKPFAVMLLGTDTGALDRTEKRGNTDTIIVVVVNPKKKNYTMISIPRDTMADMVGDDSNDVQKINAAYSIGGAKMAMKTVSNLLNIPVKYYALVNMGGLMKLVDYVGGIYVTPPLTFTYSGFPFKKRVRQHLNGQAALAYSRMRYDDPQGDYGRQKRQREVITKLVQKLATADSLTNFSKIANNLSSNVKTNLSFQALKSILANYSDCTSSSDSDYLHGYSTYVNDAAYQIAPTSELQRISNKIRKLLGLKTATVSNRETELNTLNETAGFKFGSGETQNYTLEHHHHHH | soluble |
| MHVLDLFKIEGKTAIVTGGGRGLGEQIAVGLAEAGANVVVCSRKVEACEQVKEKLEQLGVRSLALRCDVTNPEEVKHVVETTVKEFGGIDILVNNSGATWGAPVEEMPLEAWQKVINVNVTGTFLMSQAVGKVMIAKQTGGSIINIASVAGLGGTHPDILNTIGYNTSKGAVITFTRDLAAKWGKHGIRVNAVAPGFFPTKMSKVVLERVGKKVLEHTPLGRFGGEDDLKGAVLFLASPASAFVTGALLVVDGGSHATGI | soluble |
| MFRTAETSRDTLITTAYRLHRTRWRILEPYRRLKNALKKLQEDYLKSKEANALMRYVKLGQSVREVAMLEKQYWKLLNIPAQEGTEDANCYVVKIIELLEDTPTQLPPTRGIGALLQSTIGKPAEANVDTVLHDSLKARKSEDLVKECEGLYAQLYRLTKKYLGLRRLIKELHDKYEATRMFPIVPRYAMLKKMIKATLRAPEFADICHEQTE | not soluble |
| MFIPVIMAGGSGSRLWPLSRSAFPKQFLSLDSSSQHTMLQATIERLQGLPIAEPIVISNEDHRFIVAEQIRRYGKKSRIILEPAGRNTAPAIALAAFTAIEQEDDPVLLVLAADHFVKNKSAFQAAISQAAQQAEAGKLATFGIVPTTPETGYGYIHRGEEVTQGTYEINSFVEKPQLNIAEQYLASGEYYWNSGCFMFKASVFLNELKQHSPEIYRQCELAMQGLSHDYDFIRVGVEEFLKCPDDSIDYAVMEHTKLGVVVSMDAGWSDVGSWSALWEVSDKDADGNVCQGDAILSGTSNCYIYAPNKLVAAVGLKDIVVVETKDAVLVADKNQVQEVKKIVEHLKAENRAEYREHRERYRPWGKSDAIDKGERYKVNRITVEPGKKQSLQMHYHRAEHWVVVSGTAKVTCEGNVKVITENQSLYIPIGTNHMIENPGKIPLELIEIQSGSYLNEDDVVRFEDK | not soluble |
| MSLPMSLTIKLFLMFLLIESSIAKQKPDLDHVNVDMSEIDYSSFFKQMIEGWEREANEKYPFRPDLNNDDSSYFLQSRDQVYVNRSFFVQGKAQAYIRQWNNWKPYRDLGNKIGVLWPTQDNDCPKIEAMNPLTYMIHGLSRRYNILPLLK | soluble |
| MKKVIIAGNGPSLKEIDYSRLPNDFDVFRCNQFYFEDKYYLGKKCKAVFYNPSLFFEQYYTLKHLIQNQEYETELIMCSNYNQAHLENENFVKTFYDYFPDAHLGYDFFKQLKDFNAYFKFHEIQFNQRITSGVYMCAVAIALGYKEIYLSGIDFYQNGSSYAFDTKQKNLLKLAPNFKNDNSHYIGHSKNTDIKALEFLEKTYKIKLYCLCPNSLLANFIGLAPNLNSNFIIQEKNNYTKDILIPSSEAYGKFSKNINFKKIKIKENIYYKLIKDLLRLPSDIKHYFKGK | soluble |
| MGHHHHHHSHLKKNEQNFKLAGVKKDIEKLYEAVPQLSNVFKIEDKIGEGTFSSVYLATAQLQVGPEEKIALKHLIPTSHPIRIAAELQCLTVAGGQDNVMGVKYCFRKNDHVVIAMPYLEHESFLDILNSLSFQEVREYMLNLFKALKRIHQFGIVHRDVKPSNFLYNRRLKKYALVDFGLAQGTHDTKIELLKFVQSEAQQERCSQNKSHIITGNKIPLSGPVPKELDQQSTTKASVKRPYTNAQIQIKQGKDGKEGSVGLSVQRSVFGERNFNIHSSISHESPAVKLMKQSKTVDVLSRKLATKKKAISTKVMNSAVMRKTASSCPASLTCDCYATDKVCSICLSRRQQVAPRAGTPGFRAPEVLTKCPNQTTAIDMWSAGVIFLSLLSGRYPFYKASDDLTALAQIMTIRGSRETIQAAKTFGKSILCSKEVPAQDLRKLCERLRGMDSSTPKLTSDIQGHASHQPAISEKTDHKASCLVQTPPGQYSGNSFKKGDSNSCEHCFDEYNTNLEGWNEVPDEAYDLLDKLLDLNPASRITAEEALLHPFFKDMSL | not soluble |
